Molecular target: the molecule itself
Assay: SEC; Ni-NTA eluate of His-PANK3 further subjected to size-exclusion gel chromatography; all purification steps at 4 °C

B1: His-tagged recombinant human PANK3 protein (residues Pro12 to Asn368) (enzyme, UniProt Q9H999 12-368, looked up)
chain: PWFGMDIGGTLVKLSYFEPIDITAEEEQEEVESLKSIRKYLTSNVAYGSTGIRDVHLELKDLTLFGRRGNLHFIRFPTQDLPTFIQMGRDKNFSTLQTVLCATGGGAYKFEKDFRTIGNLHLHKLDELDCLVKGLLYIDSVSFNGQAECYYFANASEPERCQKMPFNLDDPYPLLVVNIGSGVSILAVHSKDNYKRVTGTSLGGGTFLGLCSLLTGCESFEEALEMASKGDSTQADKLVRDIYGGDYERFGLPGWAVASSFGNMIYKEKRESVSKEDLARATLVTITNNIGSVARMCAVNEKINRVVFVGNFLRVNTLSMKLLAYALDYWSKGQLKALFLEHEGYFGAVGALLGLPN
notes: Pantothenate kinase 3 (PANK3), human, residues Pro12 to Asn368, from a pET28a plasmid bought from Addgene (25518); also called His-PANK3; recombinant PANK3; source: E. coli BL21 (DE3) and E. coli Rosetta2 (DE3), purified (Ni-NTA, size-exclusion chromatography); not shown: His6, N-terminal, kept
stoichiometry N: 2
